In patent US20240294945:

What was measured:
Test in all cases: cell_activity
[1] = tested on: mouse ND5 silent DdCBE right (synthetic); conditions: pair, NIH3T3
[2] = target: ND4 TALE-TadA* (synthetic) (UniProt P14727); conditions: A-to-G editing
[3] = target: mDdCBE ND4 TALE-E1347A DddAtox (synthetic) (UniProt P14727); conditions: monomeric full-length DddAtox
[4] = target: mDdCBE ND4 TALE-GSVG DddAtox (synthetic) (UniProt P14727); conditions: monomeric full-length DddAtox
[5] = tested on: 16S rDNA cp-DdCBE left (synthetic); conditions: pair, mRNA in lettuce protoplasts
[6] = tested on: ATP6 mt-DdCBE left (synthetic)
[7] = tested on: ATP6 (lettuce) mt-DdCBE right (synthetic); conditions: pair, lettuce protoplasts; first printed repeat NG vs G in site
[8] = tested on: 16S rDNA cp-DdCBE right (synthetic); conditions: pair, mRNA in lettuce protoplasts

**Q.** With “TTAAAATAAAGTTATTATT (double strand) [ND5 silent right TALE site]” as the substance, how does the activity [1] read?
**A.** The activity was < 19%.

**Q.** How did the activity [2] turn out when ND4 TALE target was run?
**A.** Its activity is < 0.6%.

**Q.** What about the activity [3] of the same substance?
**A.** Its activity is < 7.2%.

**Q.** What about the activity [4] of the same substance?
**A.** Its activity is < 31%.

**Q.** How did the activity [5] turn out when “GGGGAGTACGTTCGCAAG (double strand) [16S rDNA left TALE site]” was run?
**A.** Its activity is < 25%.

**Q.** “TATTGGCATTACTATAG (double strand) [ATP6 left TALE site]” was tested. Which activity [6] did it give?
**A.** Its activity is 23%.

**Q.** How did the activity [7] turn out when “GAAAAAATGAAGCCCA (double strand) [ATP6 lettuce right TALE site]” was run?
**A.** Its activity is 23%.

**Q.** With “TGTGCGGGCCCCCGTCAA (double strand) [16S rDNA right TALE site]” as the substance, how does the activity [8] read?
**A.** The activity was < 25%.
